Assay results from the nanobody polyreactivity screen of Harvey et al. (2022).

Experiment: yeast display, Sf9 membrane polyspecificity reagent, FACS + sequencing; frameworks hold sequencing errors
Outline: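 Galactose induction of a Saccharomyces cerevisiae BJ5465 synthetic nanobody display library ran 36–48 hours. The cells were then stained for 1 hour at 4 °C with 10% biotinylated, detergent-solubilized Sf9 membrane reagent, pulled down on streptavidin microbeads and FACS-sorted into low and high (top ~1%) gates on expression and reagent-binding fluorescence. Labels for polyreactivity follow the gate of origin.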

Row | Sequence | polyreactivity (PSR sort gate)
1 | QVQLVESGGRLVQAGGSRRLSCAASGSIFYRNAKRSYRQAPGKERELVAAISGRGGSTNYADSVKGRFTISRDNAKNTVYLQMNSLKPEDTAVYYCNRYGVSNILVRGGYWGQGTQVTVSS | high polyreactivity
2 | QVQLVESGGGLVQAGGSLRLSCAASGRIFAVNAMGWYRQAPGKERELVASIRWSGGSTYYADSVKGRFTISRDNAKNTVYLQMNSLKPEDTAVYYCAAVIYLWGQGTQVTVSS | high polyreactivity
3 | QVQLVESGGGLVQAGGSLRLSCAPSGITFTHYVMGWYRQAAGKERELVAAITSGGRTNYADSVKGRFTISRDNAKNTVYLQMNSLIPEDTAVYYCNAVKRVGDYWGRSFDYDYWGQGTKVTVSS | high polyreactivity
4 | QVQLEESGGGLVQAGGSLRLSCAASGRIFEYYAMGWYRQAPGIERELVAAINTGGNTYYADSVKGRFTISRDNAKNTVYLQMNSLKPEDTAVYYCATYPIWYGGYLSGTDYDYWGQGTQVTVSS | low polyreactivity
5 | QVQLVESGGGLVQAGGSLRLSCAASGRTFANYAMGWYRQAPGKERELVAAISFSTVSTYYADSVKGRFTISRDNAKNTVYLQMNSLKPEDTAVYYCAARRLGYYRKVKELDYWGQGTQVTVSS | high polyreactivity
6 | QVQLVESGGGLVQAGGSLRLSCAASGSIFDVYAMGWSRQAAGTERELVAAIDSGGSSTYYADSVKGRFTISRDNAKNSVYLQMNSLKPEDTAVYYCAARPYYSWNYDYWGQGTQVTVSS | low polyreactivity
7 | QVQLVESGGGLLQAGGSLRLSCAASGLTFVGYDMGWYRQAPGKERELVAAISTGGGSTYYADSVKGRFTISRDNAMNTVYLKMNSLKPEDTAVYYCNKLRLHGDRYDYWGQGTQVTVSS | high polyreactivity
8 | QVQLVESGGGLVQAGGSLRLSCAASGRTLRYYAMGWYRQAPGKERELVAAITKSGGSTYYADSVKGRFTISRDNAKNTVYLQMNSLKPEDTAVYYCNKVTYSRAQYIGGDGYYWGLGTQVTVSS | high polyreactivity
9 | QVQLVESGGGLVQAGGSLRLSCAASGSIFASNAMGWYRQAPGKQWELVAAINSGTRTKYADSVKGRFTISRDNAKNTVYLQMNSRKPEDTAVYYCAARFKGERGPAHYYWGQGTQVTVSS | high polyreactivity
10 | QVQLVESGGGLVQAGGSLRLSCAASGRTFSENAMGWYRQAPGKERELVAAISGSGGRTYYADSVKGRFTISRDNAKNTVYLQMNILKPEDTAVYFCGKVTRYGSTYDYWGQGTQVTVSS | high polyreactivity
11 | QVQLVESGGGLVQAGGSLRLSCAASGRTFRGYAMGWYRQAPGKERELVAAITSGGSTNYADSVKGRFTISRDHAKNSVYLQMNSLKPEDTAVDYCNRDTSKYGLWRYIYDYWGQGTQVTVSS | low polyreactivity
12 | QVQLVESGGGLVQAGGSLRLSCAASGRIFYYYAMGWYRQAPGKERELVAVISRGGRTKYADSVKGRFTISRDNAKNTVYLQMNSLKPEDTAVYYCAVGLSGASSGMGYWGQGTQVTVSS | high polyreactivity
13 | QVQLEDSGGGLVQAGGSLRLSSAASGSTFAVYAMGWYRQAPGKERELVAAISFSGSTYADSVKGRFTISRDNAKNTVYLQMNSLKPEDTAVYYCAKEYRVFGWWYTKGDYWGQGTQVTVSS | low polyreactivity
14 | QVQLVESGGGLVQAGGSLRLSCAASGLTFHYYGMGWYRQAPGKERELVAAISSGGSTYYADSVKGRFTISRDNAKNTVYLQMNSLKPEDTAVYYCAASLAYWYRGHYDYWGQGTQVTVSS | low polyreactivity
15 | QVQLVESGGGLVQAGGSLRLSCAASGLIFGTYAMGWYRQAPGKERELVAVISSSGGSTYYADSVKGRFTISRDNAKNTVYLQLNSLKPEDTAVYYCNARAFRQGHFEYDYWGQGTQVTVSS | low polyreactivity
16 | QVQLVESGGGLVQAGGSLRLSCAASGSTFRSNAMGWYRQAPGKERELVAGISRRGGSTYYADSVTGRVTISRDNAKNTVYLQMNSLKPEDTAVDYCAASSRSFIRVYYWGQGTQVTVSS | high polyreactivity
17 | QVQLVESGGGLVQAGGSLRLSCAASGSTFTYYAMGWYRQAPGKERELVAAISRRGGSTYYADSVKGRFTISRDNAKNTVYLQMNSLKPEDTAVYYCAAASHGRFYYWGQGTQVTVSS | high polyreactivity
